Reference: PMC6900475

What was measured:
[1] = biological target: SK.Plg* activator complex of SKC1 (αG88-β_(STAB)-γG88) (group G streptococcus (GGS), G88 | group A streptococcus (GAS), STAB902 | not stated)
[2] = biological target: SK.Plg* activator complex of SKC2 (α_(STAB)-βG88-γ_(STAB)) (group A streptococcus (GAS), STAB902 | group G streptococcus (GGS), G88 | not stated)

plasminogen (natural protein)
K m (µM), proteolytic constants: Plg activation by the SK.Plg* complex against substrate Plg 0.3 to 5.0 µM, S2251 hydrolysis at 405 nm, 37 °C [1]: 1.09 µM | K m (µM), proteolytic constants: Plg activation by the SK.Plg* complex against substrate Plg 0.3 to 5.0 µM, S2251 hydrolysis at 405 nm, 37 °C [2]: 3.73 µM
